The labels stand for the following.
B1: unnamed (parent)
chain 1: HSQGTFTSDYSKYLDSRRAQDFVQWLMNTKRNRNNIA
chain 2: RPQGATVSLWETVQKWREYRRQCQRSLTEDPPPATDLFCNRTFDEYACWPDGEPGSFVNVSCPWYLPWASSVPQGHVYRFCTAEGLWLQKDNSSLPWRDLSECEESKRGERSSPEEQLLFLYIIYTVGYALSFSALVIASAILLGFRHLHCTRNYIHLNLFASFILRALSVFIKDAALKWMYSTAAQQHQWDGLLSYQDSLSCRLVFLLMQYCVAANYYWLLVEGVYLYTLLAFSVLSEQWIFRLYVSIGWGVPLLFVVPWGIVKYLYEDEGCWTRNSNMNYWLIIRLPILFAIGVNFLIFVRVICIVVSKLKANLMCKTDIKCRLAKSTLTLIPLLGTHEVIFAFVMDEHARGTLRFIKLFTELSFTSFQGLMVAILYCFVNNEVQLEFRKSWERWRLEHLHIQRDSSMKPLKCPTSSLSSGATAGSSMYTATCQASCS

The variants in the experiment derive from B1. The experiment in a line: radioligand inhibition binding (competition with 125I-exendin-4(9-39)). Particulars: read off a plot.
As for chain 2 Y282A, the log10 ratio was -1.9 ΔpKi. To chain 2 T355A belongs -0.55 ΔpKi. chain 2 C273A: the log10 ratio is 0.4 ΔpKi. Next, chain 2 S200A: -0.35 ΔpKi. To chain 2 G354A belongs -0.45 ΔpKi. Next, chain 2 S196A: 0.1 ΔpKi; chain 2 D192A: -0.2 ΔpKi; chain 2 D270A: -1 ΔpKi. With chain 2 G262A, the log10 ratio is 0.1 ΔpKi.

chain 2 Y182A: the log10 ratio was -0.3 ΔpKi.

Regarding chain 2 F362A, the log10 ratio is -0.15 ΔpKi. With chain 2 R357A, the log10 ratio was -0.55 ΔpKi. Next, chain 2 L194A: -0.15 ΔpKi; chain 2 F358A: -1.1 ΔpKi. To chain 2 D349A belongs -0.3 ΔpKi. As to chain 2 S183A, the log10 ratio is 0.1 ΔpKi. To chain 2 Y197A belongs -0.3 ΔpKi. To chain 2 E269A belongs -1.3 ΔpKi. Next, chain 2 E364A: -0.5 ΔpKi; chain 2 L356A: -0.8 ΔpKi. On to chain 2 T275A, for which the log10 ratio is 0.4 ΔpKi. Next, chain 2 R276A: -1.9 ΔpKi.

Regarding chain 2 Q187A, the log10 ratio is -0.65 ΔpKi. Next, chain 2 Q198A: 0.15 ΔpKi. With chain 2 M181A, the log10 ratio was -1.5 ΔpKi. To chain 2 S278A belongs -0.35 ΔpKi; to chain 2 W191A, -0.15 ΔpKi. Next, chain 2 I359A: 0.05 ΔpKi; chain 2 T363A: -0.2 ΔpKi; chain 2 N277A: -1.4 ΔpKi.

For chain 2 H351A, the log10 ratio was -0.4 ΔpKi. To chain 2 L267A belongs -0.4 ΔpKi; to chain 2 M280A, -0.8 ΔpKi. To chain 2 L361A belongs -0.85 ΔpKi.

In the case of chain 2 H189A, the log10 ratio is 0.2 ΔpKi.

For chain 2 Y266A, the log10 ratio is 0.1 ΔpKi.

With chain 2 L178A, the log10 ratio was -0.9 ΔpKi. Turning to chain 2 V264A, the log10 ratio was -0.25 ΔpKi.

For chain 2 Q190A, the log10 ratio was 0.1 ΔpKi. To chain 2 N281A belongs -0.5 ΔpKi; to chain 2 N279A, -1.4 ΔpKi. For the variant chain 2 W274A, the log10 ratio was -0.1 ΔpKi. To chain 2 K265A belongs -1.4 ΔpKi; to chain 2 T184A, -0.05 ΔpKi. To chain 2 D199A belongs -0.25 ΔpKi. Next, chain 2 L195A: -0.5 ΔpKi. Turning to chain 2 E271A, the log10 ratio is -0.15 ΔpKi. In the case of chain 2 E350A, the log10 ratio was -0.85 ΔpKi. Next, chain 2 Y268A: -0.45 ΔpKi; chain 2 I263A: -0.15 ΔpKi; chain 2 R353A: -0.35 ΔpKi. To chain 2 Q188A belongs -0.05 ΔpKi; to chain 2 K360A, -0.9 ΔpKi. Next, chain 2 W180A: -0.15 ΔpKi.

On to chain 2 G272A, for which the log10 ratio was 0.15 ΔpKi.

Turning to chain 2 K179A, the log10 ratio was -0.85 ΔpKi. Next, chain 2 L284A: -0.85 ΔpKi.

The values above are taken from PMC4912689, “The Extracellular Surface of the GLP-1 Receptor Is a Molecular Trigger for Biased Agonism” (Cell, 2016).
